Measured values reported in patent US20250025544A1.

Assays:
[1] = molecular target: … (EBV LMP2A, epitope 2) presented by HLA-A*0201 (human; EBV); experiment: cell-based or functional assay
[2] = molecular target: … (HCMV pp65, epitope 1) presented by HLA-A*0201 (human; HCMV); experiment: cell-based or functional assay
[3] = scale: luciferase induction relative to uninfected controls

## TCR recognizing … presented by A*0201 (PDB #3REV), expressed on Jurkat-Lucia NFAT reporter T cells
[1]
  in vitro T cell activation assay (luciferase), targeting short cassette A (luciferase induction): 6.1
  in vitro T cell activation assay (luciferase), targeting short cassette B (luciferase induction): 6.3
  in vitro T cell activation assay (luciferase), targeting short cassette C (luciferase induction): 7.6
  in vitro T cell activation assay (luciferase), targeting short cassette D (luciferase induction): 7
  in vitro T cell activation assay (luciferase), targeting short cassette E (luciferase induction): 5.9
  in vitro T cell activation assay (luciferase), targeting short cassette F (luciferase induction): 3.7
  in vitro T cell activation assay (luciferase), targeting short cassette G (luciferase induction): 7.6
  in vitro T cell activation assay (luciferase), targeting short cassette H (luciferase induction): 5.4
  in vitro T cell activation assay (luciferase), targeting short cassette I (luciferase induction): 6.2
  in vitro T cell activation assay (luciferase), targeting short cassette J (luciferase induction): 6.4
  induction of luciferase, short cassette AAY (luciferase induction): 11.3
  luciferase induction, short cassette 9AA: 12
  luciferase induction, short cassette 17AA: 10.3
  luciferase induction, short cassette 25AA: 14.6
  luciferase induction, short cassette AAY: 11.3
  luciferase induction, short cassette DPP: 1.1
  luciferase induction, short cassette RR: 8.5

## TCR recognizing … presented by A*0201 (PDB #5D2N), expressed on Jurkat-Lucia NFAT reporter T cells
[2]
  in vitro T cell activation assay (luciferase), targeting short cassette A (luciferase induction): 32.5
  in vitro T cell activation assay (luciferase), targeting short cassette B (luciferase induction): 31.8
  in vitro T cell activation assay (luciferase), targeting short cassette C (luciferase induction): 29.1
  in vitro T cell activation assay (luciferase), targeting short cassette D (luciferase induction): 29.1
  in vitro T cell activation assay (luciferase), targeting short cassette E (luciferase induction): 28.4
  in vitro T cell activation assay (luciferase), targeting short cassette F (luciferase induction): 20.4
  in vitro T cell activation assay (luciferase), targeting short cassette G (luciferase induction): 35
  in vitro T cell activation assay (luciferase), targeting short cassette H (luciferase induction): 30.3
  in vitro T cell activation assay (luciferase), targeting short cassette I (luciferase induction): 22.5
  in vitro T cell activation assay (luciferase), targeting short cassette J (luciferase induction): 38.1
  induction of luciferase, short cassette AAY (luciferase induction): 24.5
[2]; [3]
  luciferase induction, short cassette 9AA: 33.6
  luciferase induction, short cassette 17AA: 42.8
  luciferase induction, short cassette 25AA: 42.3
  luciferase induction, short cassette AAY: 24.5
  luciferase induction, short cassette DPP: 0.9
  luciferase induction, short cassette RR: 21.7
